According to patent US5698421:
Where a chain is given by its changes, count along the chain named.

What was measured:
[1] = target: T1, aI2-encoded protein P714T P714T (Saccharomyces cerevisiae) (UniProt P03876); experiment: cleavage_in_vitro; settings: relative to Example 1 RNP
T1 sequence: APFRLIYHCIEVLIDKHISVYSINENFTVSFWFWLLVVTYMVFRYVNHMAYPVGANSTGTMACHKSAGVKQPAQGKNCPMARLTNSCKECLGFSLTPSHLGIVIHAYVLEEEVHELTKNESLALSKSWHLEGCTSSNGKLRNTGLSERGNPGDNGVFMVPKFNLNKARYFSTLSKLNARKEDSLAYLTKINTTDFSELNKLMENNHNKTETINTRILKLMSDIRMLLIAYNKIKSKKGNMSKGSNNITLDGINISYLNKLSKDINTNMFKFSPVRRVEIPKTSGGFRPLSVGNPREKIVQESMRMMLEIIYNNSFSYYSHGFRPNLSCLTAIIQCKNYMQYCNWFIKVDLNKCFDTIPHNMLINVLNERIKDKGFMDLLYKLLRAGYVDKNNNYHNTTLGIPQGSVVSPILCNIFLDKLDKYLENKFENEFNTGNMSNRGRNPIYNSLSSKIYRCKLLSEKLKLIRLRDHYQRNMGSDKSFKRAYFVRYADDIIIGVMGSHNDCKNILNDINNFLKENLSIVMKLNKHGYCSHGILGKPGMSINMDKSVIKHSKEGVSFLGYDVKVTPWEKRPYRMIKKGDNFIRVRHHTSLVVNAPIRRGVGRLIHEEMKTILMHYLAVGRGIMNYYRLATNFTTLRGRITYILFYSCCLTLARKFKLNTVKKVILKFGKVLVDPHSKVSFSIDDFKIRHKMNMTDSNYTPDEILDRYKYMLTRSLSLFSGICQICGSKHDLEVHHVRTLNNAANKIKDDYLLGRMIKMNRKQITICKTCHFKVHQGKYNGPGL

[2] = target: T2, aI2-encoded protein (wild-type, 62 kDa), aI2 RNP particle (Saccharomyces cerevisiae) (UniProt P03876); experiment: cleavage_in_vitro; settings: 20 mM Mg
T2 sequence: T1 sequence with T714P

Substance | relative cleavage activity ([1]; antisense strand) [%] | relative cleavage activity ([1]; sense strand) [%] | binding signal (relative rate) [2]
excised aI2 RNA, strain-specific mutated ; pE2E3-derived substrate, E2-E3 target | 6 | 25 | –
excised aI2 intron RNA ; pE2E3 142 nt RNA substrate | – | – | 1
